Assay [1] deals with T1, human PVRIG on FlpinCHO-PVRIG cells (human, UniProt Q6DKI7 41-326).
T1 construct: whole, on cells
T1 sequence (looked up): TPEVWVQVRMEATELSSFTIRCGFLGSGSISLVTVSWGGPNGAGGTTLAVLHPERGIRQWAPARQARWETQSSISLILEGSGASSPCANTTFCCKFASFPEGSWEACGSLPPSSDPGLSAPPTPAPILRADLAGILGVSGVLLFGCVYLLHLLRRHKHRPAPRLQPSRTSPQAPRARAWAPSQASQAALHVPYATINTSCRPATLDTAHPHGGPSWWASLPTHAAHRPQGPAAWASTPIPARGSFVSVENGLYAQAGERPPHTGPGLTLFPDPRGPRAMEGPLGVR
Description: FACS, FlpinCHO-PVRIG cells. The protocol:
The Ham's F12 (Gibico, 21127-022) complete medium containing 10% FBS was then added to terminate the digestion and acquire cell suspension. After counting with a cell counter (Beckman Coulter, Vi-CELL), an appropriate amount of cell suspension was centrifuged at 350×g to remove the supernatant, washed twice with PBS, stained with Zombie violet (Biolegend, 423114) and incubated at room temperature for 20 minutes. After incubation, the cells were added with staining buffer (2% FBS+PBS) to stop staining, centrifuged at 350×g to remove the supernatant, washed twice and resuspended with staining buffer to a density of 2×10⁶ cells/mL. The cells were plated into a 96-well plate (50 μL of cell suspension per well) for further use. The antibodies were diluted from the highest concentration of 46 nM (two-fold concentration) with staining buffer by 3.3-fold serial dilution. The diluted antibodies were added to the well containing 50 μL of cell suspension. The plate was placed on a microplate shaker at 400 rpm for 1 minute to fully mix the antibodies and cells, and then incubated at 4° C. for 30 minutes. After the incubation, the cells were washed twice with staining buffer (200 μL per well) and centrifuged at 350×g for 5 minutes to discard the supernatant. The PE goat anti-human IgG Fc antibody (ebioscience, 12-4998-82) was diluted 250 times with staining buffer, added into the washed wells (100 μL per well), mixed well, and stained at 4° C. for 30 minutes. After staining, the cells were washed twice with staining buffer, finally resuspended with 200 μL staining buffer and analyzed by flow cytometry (BD, Canto II). The stronger the signal, the stronger the ability of the antibodies binds to PVRIG. An antibody binding curve was drawn with concentration of antibodies as the abscissa and the corresponding Mean Fluorescence Intensity (MFI) as the ordinate. The AUC value of the curve was calculated by using a Four Parameter Logistic Fit (GraphPadPrism9). The stronger the AUC value, the stronger the ability of the antibodies binds to FlpinCHO-PVRIG and FlpinCHO-cyno PVRIG. […] The binding activity of the antibodies was normalized to the positive control COM701-hIgG1 and SRF813-hIgG1.
Background: A flow cytometer gives signals particle by particle.

The target of assay [2] is T2, human PVRIG-his (AcroBiosystems, Cat NO. PVG-H52H4) (human, UniProt Q6DKI7 41-171, limits assumed).
T2 construct: also called human PVRIG protein
T2 sequence (looked up): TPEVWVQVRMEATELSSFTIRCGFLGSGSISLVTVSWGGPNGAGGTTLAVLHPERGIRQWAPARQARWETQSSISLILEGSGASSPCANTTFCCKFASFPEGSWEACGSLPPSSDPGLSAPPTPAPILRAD
Nature of the assay: SPR (BIAcore), antibody captured on Protein A chip, human PVRIG-His analyte. The protocol:
(§1) Biacore was used to detect the specific binding between anti-PVRIG antibody and human PVRIG protein. Protein A chip was used in the BIAcore assay. The time required for the chip to capture the diluted antibody and saturate the binding antigen to reach Rₘₐₓ (Maximum binding capacity, 50 RU) was measured by manual run. […] The affinity of antibody for antigen was measured by multi-cycle kinetics. In each cycle, the antibodies were injected prior to the injection of gradient concentraions of PVRIG proteins allowing the occurrence of antibody-antigen association and dissociation After each cycle, the Protein A chip was regenerated by Glycine, pH 1.5 (to remove the proteins on the chip). The affinity of antibody for antigen was calculated by BIAcore T200 analysis software.
The methods refer to Example 10.

Assay [3] concerns the target T2, human PVRIG-his (AcroBiosystems, Cat …). The assay is described as above. As to the method: as §1
The source holds these as a separate data set.

For assay [4] the target is unchanged. Nature of the assay: competition ELISA, PVRIG-His coated, competitor human PVRL2-mFc. The arrangement: AUC: unit not given here. As to the method: The ELISA plate was pre-coated with 100 μL/well of 0.5 μg/mL human PVRIG-his protein (AcroBiosystems, Cat NO. PVG-H52H4). The tested anti-PVRIG antibodies were diluted from the highest concentration of 16 nM (two-fold concentration). The diluted antibodies were mixed with 18 ng/ml human PVRL2-mFc (AcroBiosystems, Cat NO. CD2-H5257) in equal volume, added into the plate (100 μL/well), and incubated with shaking at room temperature for 2.0 hours. […] A HRP substrate, TMB (Thermo, Cat NO. 34029) was added into wells after washing the plate again for color development. After adding a termination solution to terminate the reaction, the absorbance value was read by a microplate reader (MD i3×). An inhibiting curve was drawn with concentration of antibodies as the abscissa and the corresponding OD value as the ordinate. The IC50 value was calculated by using a Four Parameter Logistic Fit (GraphPadPrism9). The smaller the IC50 value, the stronger the ability of the antibodies inhibits the binding between PVRIG and PVRL2. The positive and negative controls are the same as in Example 8.
The methods refer to Example 11. The inhibiting activity of the humanized antibodies was normalized to the corresponding parental antibodies. If the percentage value is higher than 100%, the inhibiting effect of humanized antibodies is better than that of parental antibodies.

Experimental findings from patent US20240343803A1 (SHANDONG SIMCERE BIOPHARMACEUTICAL, published 2024) are described below.

Read-outs that look alike come from different tables or passages of the source.

By Kd is commonly meant the equilibrium constant for the complex coming apart. A word on the koff: it is the rate constant with which the complex falls apart. One may read the kon as a measure of how fast the partners come together. The IC50 is the concentration that inhibits the measured activity by half.

B1: PVRIG-A50 (Fc fusion)
chain: EVQLVESGGGLVQPGGSLRLSCAASGFTFSYYDMSWVRQAPGKGLEWVSTINSNGGRTSYVDSVKGRFTISRDNTKNTLYLQMNSLKPEDTAVYYCVEGDPHNFGLENLSLRDFGSWGQGTQVTVSS
notes: heavy chain antibody VHH-hinge-CH2-CH3, human IgG1 constant part; also called PVRIG-50; not shown: human IgG1 hinge-CH2-CH3
For the molecule B1, in assay [1], the “AUC % to COM701-hIgG1” value came to 73.4%, the “AUC % to SRF813-hIgG1” value amounted to 130% and the “AUC % to parental Ab” value worked out at 100%. For the same molecule, in assay [2], the Kd was found to be 0.043 nM, the koff worked out at 1.9e-05 s⁻¹ and the kon was 443000 M⁻¹ s⁻¹. In addition, in assay [3], the Kd came to 0.0254 nM, the off-rate constant (koff) is 1.29e-05 s⁻¹ and the on-rate (kon) turned out to be 507000 M⁻¹ s⁻¹.

B2: PVRIG-A50-H1d (Fc fusion)
chain: EVQLVESGGGLVQPGGSLRLSCAASGFTFSYYDMSWVRQAPGKGLEWVSTINSNGGRTSYVDSVKGRFTISRDNSKNTLYLQMNSLRAEDTAVYYCVEGDPHNFGLESLSLRDFGSWGQGTMVTVSS
notes: humanized variant of PVRIG-A50; also called A50.VH1d; not shown: constant part not restated for the humanized forms; parents are VHH-hinge-CH2-CH3 of human IgG1; detected by anti-human
On to B2, for which, in assay [4], the “% relative activity (AUC) parental antibody/test antibody” value is 83.2%, the “% relative activity (IC50) parental antibody/test antibody” value stood at 75%, the AUC was determined as 2.4 and the IC50 turned out to be 1.03 nM. Further, in assay [1], the “AUC % to COM701-hIgG1” value is 63.1%, the “AUC % to SRF813-hIgG1” value is 112% and the “AUC % to parental Ab” value worked out at 85.9%. In assay [2], this molecule returned a Kd of 0.0545 nM, a koff of 1.43e-05 s⁻¹ and a kon of 262000 M⁻¹ s⁻¹.

B3: PVRIG-A50-H1 (Fc fusion)
chain: EVQLVESGGGLVQPGGSLRLSCAASGFTFSYYDMSWVRQAPGKGLEWVSTINSNGGRTSYVDSVKGRFTISRDNSKNTLYLQMNSLRAEDTAVYYCVEGDPHNFGLENLSLRDFGSWGQGTMVTVSS
notes: humanized variant of PVRIG-A50; also called A50.VH1; not shown: constant part not restated for the humanized forms; parents are VHH-hinge-CH2-CH3 of human IgG1; detected by anti-human
On to B3, for which, in assay [4], the “% relative activity (AUC) parental antibody/test antibody” value is 82.6%, the “% relative activity (IC50) parental antibody/test antibody” value amounted to 77.5%, the AUC turned out to be 2.42 and the IC50 is 1 nM. Besides, in assay [1], the “AUC % to COM701-hIgG1” value was 74.4%, the “AUC % to SRF813-hIgG1” value is 132% and the “AUC % to parental Ab” value stood at 101%. For the same molecule, in assay [2], the affinity, expressed as Kd, was 0.0362 nM; the koff was 1.48e-05 s⁻¹; the association rate constant (kon) is 410000 M⁻¹ s⁻¹.

B4: PVRIG-A118-H6 (Fc fusion)
chain: EVQLVESGGGLVQPGGSLRLSCAASETYFDLYVMGWYRQAPGKDRELVATITYTGSIKIVDSVKGRFTISRGDAKNSLYLQMNSLRAEDTAVYYCNADPSGLGRKVYWGQGTMVTVSS
notes: humanized variant of PVRIG-A118; also called A118.VH6; not shown: constant part not restated for the humanized forms; parents are VHH-hinge-CH2-CH3 of human IgG1; detected by anti-human
On to B4, for which, in assay [4], the “% relative activity (AUC) parental antibody/test antibody” value is 108%, the “% relative activity (IC50) parental antibody/test antibody” value was 132%, the AUC is 1.47 and the IC50 was determined as 0.422 nM. In assay [1], the “AUC % to COM701-hIgG1” value was 129%, the “AUC % to SRF813-hIgG1” value stood at 180% and the “AUC % to parental Ab” value came out at 94.2%. In assay [2], this molecule showed a Kd of 1.1 nM, a koff of 0.00299 s⁻¹ and a kon of 2.71e+06 M⁻¹ s⁻¹.

B5: PVRIG-A118-H3 (Fc fusion)
chain: EVQLVESGGGLVQPGGSLRLSCAASETYFDLYVMGWYRQAPGKDRELVATITYTGSIKYVDSVKGRFTISRGDAKNSLYLQMNSLRAEDTAVYYCNADPSGLGRKVYWGQGTMVTVSS
notes: humanized variant of PVRIG-A118; also called A118.VH3; not shown: constant part not restated for the humanized forms; parents are VHH-hinge-CH2-CH3 of human IgG1; detected by anti-human
As for B5, in assay [4], the “% relative activity (AUC) parental antibody/test antibody” value came to 106%, the “% relative activity (IC50) parental antibody/test antibody” value came out at 144%, the AUC was determined as 1.49 and the IC50 stood at 0.386 nM. Also, in assay [1], the “AUC % to COM701-hIgG1” value is 129%, the “AUC % to SRF813-hIgG1” value was 180% and the “AUC % to parental Ab” value worked out at 94.5%. In assay [2], the equilibrium dissociation constant (Kd) was determined as 1.35 nM, the dissociation rate constant (koff) was determined as 0.00349 s⁻¹ and the kon was determined as 2.59e+06 M⁻¹ s⁻¹.

B6: PVRIG-A118-H7 (Fc fusion)
chain: EVQLVESGGGLVQPGGSLRLSCAASETYFDLYVMGWYRQAPGKDRELVATITYTGSIKYVDSVKGRFTISRGDAKNSLYLQMNSLRAEDTAVYFCNADPSGLGRKVYWGQGTMVTVSS
notes: humanized variant of PVRIG-A118; also called A118.VH7; not shown: constant part not restated for the humanized forms; parents are VHH-hinge-CH2-CH3 of human IgG1; detected by anti-human
B6: in assay [4], the “% relative activity (AUC) parental antibody/test antibody” value is 114%, the “% relative activity (IC50) parental antibody/test antibody” value worked out at 129%, the AUC is 1.38 and the IC50 is 0.43 nM. In assay [1], the “AUC % to COM701-hIgG1” value came out at 126%, the “AUC % to SRF813-hIgG1” value was 177% and the “AUC % to parental Ab” value was determined as 92.7%. In assay [2], this molecule registered a dissociation constant Kd of 1.08 nM, a koff of 0.0026 s⁻¹ and a kon of 2.41e+06 M⁻¹ s⁻¹.

B7: PVRIG-A118-H2 (Fc fusion)
chain: EVQLVESGGGLVQPGGSLRLSCAASETYFDLYVMGWYRQAPGKDRELVATITYTGSIKYVDSVKGRFTISRDNAKNSLYLQMNSLRAEDTAVYYCNADPSGLGRKVYWGQGTMVTVSS
notes: humanized variant of PVRIG-A118; also called A118.VH2; not shown: constant part not restated for the humanized forms; parents are VHH-hinge-CH2-CH3 of human IgG1; detected by anti-human
Regarding B7, in assay [4], the “% relative activity (AUC) parental antibody/test antibody” value came out at 117%, the “% relative activity (IC50) parental antibody/test antibody” value came out at 156%, the AUC was found to be 1.35 and the IC50 worked out at 0.357 nM. Moreover, in assay [1], the “AUC % to COM701-hIgG1” value was 125%, the “AUC % to SRF813-hIgG1” value was 174% and the “AUC % to parental Ab” value is 91.3%. In assay [2], this molecule registered a Kd of 0.517 nM, a koff of 0.00082 s⁻¹ and a kon of 1.59e+06 M⁻¹ s⁻¹.

B8: PVRIG-A118-H1 (Fc fusion)
chain: EVQLVESGGGLVQPGGSLRLSCAASETYFDLYVMGWYRQAPGKDRELVATITYTGSIYYVDSVKGRFTISRDNAKNSLYLQMNSLRAEDTAVYYCNADPSGLGRKVYWGQGTMVTVSS
notes: humanized variant of PVRIG-A118; also called A118.VH1; not shown: constant part not restated for the humanized forms; parents are VHH-hinge-CH2-CH3 of human IgG1; detected by anti-human
Take B8: in assay [4], the “% relative activity (AUC) parental antibody/test antibody” value came out at 121%, the “% relative activity (IC50) parental antibody/test antibody” value was 157%, the AUC is 1.31 and the half-maximal inhibitory concentration (IC50) is 0.355 nM. Besides, in assay [1], the “AUC % to COM701-hIgG1” value stood at 127%, the “AUC % to SRF813-hIgG1” value came to 178% and the “AUC % to parental Ab” value is 93.2%. In addition, in assay [2], the Kd came out at 0.478 nM, the koff came out at 0.000658 s⁻¹ and the kon was 1.38e+06 M⁻¹ s⁻¹.
